Here are results for 39 molecules from article PMC10681739, “High-throughput data and modeling reveal insights into the mechanisms of cooperative DNA-binding by transcription factor proteins”.

T1: ETS1 (Homo sapiens, UniProt P14921)
T1 sequence: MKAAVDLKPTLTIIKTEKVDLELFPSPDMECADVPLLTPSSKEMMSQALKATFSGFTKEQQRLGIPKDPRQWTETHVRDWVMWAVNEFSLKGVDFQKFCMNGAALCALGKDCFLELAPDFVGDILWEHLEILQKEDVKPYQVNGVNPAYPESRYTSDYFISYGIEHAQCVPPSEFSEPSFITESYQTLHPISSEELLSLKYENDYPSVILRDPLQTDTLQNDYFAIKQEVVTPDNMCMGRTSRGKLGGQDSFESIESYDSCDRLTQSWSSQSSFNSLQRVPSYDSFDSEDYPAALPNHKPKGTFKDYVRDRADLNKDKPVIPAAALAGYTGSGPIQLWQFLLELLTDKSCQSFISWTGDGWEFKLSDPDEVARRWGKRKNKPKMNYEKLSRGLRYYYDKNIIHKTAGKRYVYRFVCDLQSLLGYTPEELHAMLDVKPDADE

B1: Table S2 C row 125 (dsDNA)
DNA 1: CATTTCAGTAGACTCACCACAAGGTTGTGGCCAGAA
DNA 2: TTCTGGCCACAACCTTGTGGTGAGTCTACTGAAATG
B2: Table S2 C row 128 (dsDNA)
DNA 1: AAGATATGGGCTACTTGTGGTTTACTCTGTCTGCTA
DNA 2: TAGCAGACAGAGTAAACCACAAGTAGCCCATATCTT
B3: Table S2 C row 14 (dsDNA)
DNA 1: CTTGCCTAAGACATGCCCACAGCTGCACAGATAAGA
DNA 2: TCTTATCTGTGCAGCTGTGGGCATGTCTTAGGCAAG
B4: Table S2 C row 158 (dsDNA)
DNA 1: AGGTATTAAACAGCAACCGCATTGCCAAGCACTGTG
DNA 2: CACAGTGCTTGGCAATGCGGTTGCTGTTTAATACCT
B5: Table S2 C row 115 (dsDNA)
DNA 1: TGGGGCTTCTCGTTGGCCACAAGTTCAATTTGAGCC
DNA 2: GGCTCAAATTGAACTTGTGGCCAACGAGAAGCCCCA
B6: Table S2 C row 2 (dsDNA)
DNA 1: GTGATGCCGACAGGCCGTGGTTTCTGAGAAACACCA
DNA 2: TGGTGTTTCTCAGAAACCACGGCCTGTCGGCATCAC
B7: Table S2 C row 88 (dsDNA)
DNA 1: TGAGGCTCAGTGCTGACCACATTCAAATGACTAGAC
DNA 2: GTCTAGTCATTTGAATGTGGTCAGCACTGAGCCTCA
B8: Table S2 C row 136 (dsDNA)
DNA 1: CAAATGAGGTGCCAAGCCACAAAAAGCATTTGCGTC
DNA 2: GACGCAAATGCTTTTTGTGGCTTGGCACCTCATTTG
B9: Table S2 C row 20 (dsDNA)
DNA 1: TCTCCTCTGAGGGCCTGTGGGCAATGAGCAGAAAAG
DNA 2: CTTTTCTGCTCATTGCCCACAGGCCCTCAGAGGAGA
B10: Table S2 C row 33 (dsDNA)
DNA 1: ATCTCAGTTAAGCAGACCACACTTTACGTTCTAGTT
DNA 2: AACTAGAACGTAAAGTGTGGTCTGCTTAACTGAGAT
B11: Table S2 C row 149 (dsDNA)
DNA 1: TTGGCTTCGGTTCTAACCTCAGAGACTTCTCTAAAT
DNA 2: ATTTAGAGAAGTCTCTGAGGTTAGAACCGAAGCCAA
B12: Table S2 B row 672 (dsDNA)
DNA 1: GGCTTCCGGCGGGGTACCCTCCTCTGTAGGCGGGGC
DNA 2: GCCCCGCCTACAGAGGAGGGTACCCCGCCGGAAGCC
B13: Table S2 C row 181 (dsDNA)
DNA 1: CACAGGCAGTTCCAGACCGCAGCCTTCCAGGGCCCT
DNA 2: AGGGCCCTGGAAGGCTGCGGTCTGGAACTGCCTGTG
B14: Table S2 C row 129 (dsDNA)
DNA 1: GCAGCTGTAGAGGCCTGAGGTTTACCTAATCTGCTA
DNA 2: TAGCAGATTAGGTAAACCTCAGGCCTCTACAGCTGC
B15: Table S2 C row 133 (dsDNA)
DNA 1: TTGTAGGGATGACTGACCACAAAAGACAGTGACTCA
DNA 2: TGAGTCACTGTCTTTTGTGGTCAGTCATCCCTACAA
B16: Table S2 C row 100 (dsDNA)
DNA 1: AGATGAATCACAGAGACCACACATGGAGACCCATCT
DNA 2: AGATGGGTCTCCATGTGTGGTCTCTGTGATTCATCT
B17: Table S2 C row 71 (dsDNA)
DNA 1: CTGGGTTGGATGACCTGCGGTGGAACAGATGGCTCC
DNA 2: GGAGCCATCTGTTCCACCGCAGGTCATCCAACCCAG
B18: Table S2 C row 134 (dsDNA)
DNA 1: AAGTCTACAGCTCTTTGAGGTTCATGTGTGACTCTA
DNA 2: TAGAGTCACACATGAACCTCAAAGAGCTGTAGACTT
B19: Table S2 C row 6 (dsDNA)
DNA 1: TAAGCCCCGCGTGCCTGTGGGTATTTGAAAGCTGAA
DNA 2: TTCAGCTTTCAAATACCCACAGGCACGCGGGGCTTA
B20: Table S2 C row 74 (dsDNA)
DNA 1: GTTAAAACAAAGCAAGCCACAGTGTGTGTCCACAGA
DNA 2: TCTGTGGACACACACTGTGGCTTGCTTTGTTTTAAC
B21: Table S2 C row 85 (dsDNA)
DNA 1: TGTAATCTTTCTTAATGTGGTTAAATTCAAGTTATT
DNA 2: AATAACTTGAATTTAACCACATTAAGAAAGATTACA
B22: Table S2 C row 75 (dsDNA)
DNA 1: AGCTCTGAGAATCATTGTGGCCACACTGTCATGGTC
DNA 2: GACCATGACAGTGTGGCCACAATGATTCTCAGAGCT
B23: Table S2 C row 156 (dsDNA)
DNA 1: AGGTGTGCTCTCCACCGCGGTTCACAAGGTGTCTGC
DNA 2: GCAGACACCTTGTGAACCGCGGTGGAGAGCACACCT
B24: Table S2 C row 48 (dsDNA)
DNA 1: TTCAGAGTCAGATCTACCACACACAGCCCAGGAGCC
DNA 2: GGCTCCTGGGCTGTGTGTGGTAGATCTGACTCTGAA
B25: Table S2 B row 2766 (dsDNA)
DNA 1: TTTGCAAATCCAGAGCGGAGACTTCCGGTGGCCTAG
DNA 2: CTAGGCCACCGGAAGTCTCCGCTCTGGATTTGCAAA
B26: Table S2 C row 93 (dsDNA)
DNA 1: ATGCTGTCAAAAACTACCACAGACTGATTGGCTTAA
DNA 2: TTAAGCCAATCAGTCTGTGGTAGTTTTTGACAGCAT
B27: Table S2 C row 32 (dsDNA)
DNA 1: TAGTTGTATGTGGAAACCACAAAACTGAGTCATAAA
DNA 2: TTTATGACTCAGTTTTGTGGTTTCCACATACAACTA
B28: Table S2 C row 87 (dsDNA)
DNA 1: GAATGTCTTTAAAAAACCACAGAATTGGGCTGGGCG
DNA 2: CGCCCAGCCCAATTCTGTGGTTTTTTAAAGACATTC
B29: Table S2 C row 46 (dsDNA)
DNA 1: GGTTTACAGCTCATTTGCGGCAGAATCAAAATGGCT
DNA 2: AGCCATTTTGATTCTGCCGCAAATGAGCTGTAAACC
B30: Table S2 C row 191 (dsDNA)
DNA 1: CCAAAAAGAGAGGCAGCCACAAGATCTTCTAAAAGG
DNA 2: CCTTTTAGAAGATCTTGTGGCTGCCTCTCTTTTTGG
B31: Table S2 B row 665 (dsDNA)
DNA 1: CTCCGTGCCACTACAGCCACTTCCTGCCTTGAAAAC
DNA 2: GTTTTCAAGGCAGGAAGTGGCTGTAGTGGCACGGAG
B32: Table S2 C row 23 (dsDNA)
DNA 1: GCTTTGCACAGCTTTGCCACAAAGCCCAGTCTGTGT
DNA 2: ACACAGACTGGGCTTTGTGGCAAAGCTGTGCAAAGC
B33: Table S2 C row 72 (dsDNA)
DNA 1: ACTACCTTCTTGGTAACCACAAGTCTCAGAGGTACT
DNA 2: AGTACCTCTGAGACTTGTGGTTACCAAGAAGGTAGT
B34: Table S2 C row 57 (dsDNA)
DNA 1: CACAGAACTGACCAGACCACATGGAGGCCAATCAAA
DNA 2: TTTGATTGGCCTCCATGTGGTCTGGTCAGTTCTGTG
B35: Table S2 C row 55 (dsDNA)
DNA 1: CTGACATTTAAGCTCACCACATGTGGGATAGTTAGT
DNA 2: ACTAACTATCCCACATGTGGTGAGCTTAAATGTCAG
B36: Table S2 C row 69 (dsDNA)
DNA 1: CTGGCAAAGCAGAAGTGTGGTTTCAGAGTCTCCCTC
DNA 2: GAGGGAGACTCTGAAACCACACTTCTGCTTTGCCAG
B37: Table S2 C row 43 (dsDNA)
DNA 1: GGCTTTCCAAGCTAGTGTGGTCCACTTGCTCCCTCA
DNA 2: TGAGGGAGCAAGTGGACCACACTAGCTTGGAAAGCC
B38: Table S2 C row 124 (dsDNA)
DNA 1: CGCAGCTCCCCACTGTGCGGTTATCTAGGCCAGCAC
DNA 2: GTGCTGGCCTAGATAACCGCACAGTGGGGAGCTGCG
B39: Table S2 C row 58 (dsDNA)
DNA 1: CATCTGCAGACACTGTGTGGTTTCCAGGTTCCCGAG
DNA 2: CTCGGGAACCTGGAAACCACACAGTGTCTGCAGATG

This data set deals with T1, ETS1. The experiment in a line: gcPBM; 1 nM ETS1. The following applies: tags: N-terminal GST (pDEST15), kept (PMC6008103); label: surface-attached array probe.
For the molecule B1, the binding signal was 399 PBM fluorescence, median of replicate spots.

B2: the binding signal was 392 PBM fluorescence, median of replicate spots.

Consider B3, for which the binding signal was 383 PBM fluorescence, median of replicate spots.

Turning to B4, the binding signal is 391 PBM fluorescence, median of replicate spots.

Consider B5, for which the binding signal was 381 PBM fluorescence, median of replicate spots.

On to B6, for which the binding signal was 392 PBM fluorescence, median of replicate spots.

Regarding B7, the binding signal was 389 PBM fluorescence, median of replicate spots.

Consider B8, for which the binding signal was 388 PBM fluorescence, median of replicate spots.

In the case of B9, the binding signal was 389 PBM fluorescence, median of replicate spots.

In the case of B10, the binding signal was 393 PBM fluorescence, median of replicate spots.

As for B11, the binding signal was 389 PBM fluorescence, median of replicate spots.

For the molecule B12, the binding signal was 13700 PBM fluorescence, median of replicate spots.

Regarding B13, the binding signal is 391 PBM fluorescence, median of replicate spots.

Turning to B14, the binding signal was 377 PBM fluorescence, median of replicate spots.

In the case of B15, the binding signal is 398 PBM fluorescence, median of replicate spots.

B16: the binding signal was 403 PBM fluorescence, median of replicate spots.

Regarding B17, the binding signal was 374 PBM fluorescence, median of replicate spots.

As to B18, the binding signal was 394 PBM fluorescence, median of replicate spots.

On to B19, for which the binding signal was 385 PBM fluorescence, median of replicate spots.

For the molecule B20, the binding signal is 382 PBM fluorescence, median of replicate spots.

As to B21, the binding signal is 407 PBM fluorescence, median of replicate spots.

Consider B22, for which the binding signal is 376 PBM fluorescence, median of replicate spots.

For the molecule B23, the binding signal is 376 PBM fluorescence, median of replicate spots.

Take B24: the binding signal is 393 PBM fluorescence, median of replicate spots.

Take B25: the binding signal is 14400 PBM fluorescence, median of replicate spots.

B26: the binding signal is 399 PBM fluorescence, median of replicate spots.

As to B27, the binding signal is 395 PBM fluorescence, median of replicate spots.

Regarding B28, the binding signal is 379 PBM fluorescence, median of replicate spots.

On to B29, for which the binding signal was 392 PBM fluorescence, median of replicate spots.

Regarding B30, the binding signal is 380 PBM fluorescence, median of replicate spots.

With B31, the binding signal is 13300 PBM fluorescence, median of replicate spots.

With B32, the binding signal is 399 PBM fluorescence, median of replicate spots.

Consider B33, for which the binding signal was 394 PBM fluorescence, median of replicate spots.

As to B34, the binding signal is 379 PBM fluorescence, median of replicate spots.

In the case of B35, the binding signal is 379 PBM fluorescence, median of replicate spots.

In the case of B36, the binding signal is 405 PBM fluorescence, median of replicate spots.

In the case of B37, the binding signal was 378 PBM fluorescence, median of replicate spots.

With B38, the binding signal was 376 PBM fluorescence, median of replicate spots.

For the molecule B39, the binding signal is 406 PBM fluorescence, median of replicate spots.
